Test results reported in article doi:10.1101/2020.05.08.085126.
Like-named read-outs stand apart in the source and are kept apart here.

T1: His-MBP-STF-HD (Medicago truncatula, UniProt G0ZGT3 85-190)
T1 sequence: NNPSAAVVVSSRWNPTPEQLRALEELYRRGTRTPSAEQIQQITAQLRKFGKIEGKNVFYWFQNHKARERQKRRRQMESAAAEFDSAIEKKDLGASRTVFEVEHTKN

B1: MtLOB39 promoter P1 (dsDNA)
DNA 1: GACCAATCAATGTTGAAAATGTAGAATATT
DNA 2: AATATTCTACATTTTCAACATTGATTGGTC
B2: MtLOB39 promoter P2 (dsDNA)
DNA 1: TATTCAAATTAATGATTTATTCAATTTT
DNA 2: AAAATTGAATAAATCATTAATTTGAATA
B3: MtLOB39 promoter P3 (dsDNA)
DNA 1: CTTTCAATTATACATTTTAATTAATATTAATTT
DNA 2: AAATTAATATTAATTAAAATGTATAATTGAAAG
B4: MtLOB38 promoter P1 (dsDNA)
DNA 1: AAAAAAAAATTATATATTAATAGTAATAAATAATAAAAAATAAT
DNA 2: ATTATTTTTTATTATTTATTACTATTAATATATAATTTTTTTTT
B5: MtLOB38 promoter P2 (dsDNA)
DNA 1: TCAAATTTCAAATAGAATAAATTTGAAAGTGATAAATGATTAATTATTTT
DNA 2: AAAATAATTAATCATTTATCACTTTCAAATTTATTCTATTTGAAATTTGA

How the values were obtained:
His-MBP-STF-HD [1] = molecular target: T1, His-MBP-STF-HD; test: EMSA
His-MBP-STF-HD [2] = molecular target: T1, His-MBP-STF-HD; test: EMSA; remark: listed apart in the source

Binder	binding result (His-MBP-STF-HD [1])	binding result (His-MBP-STF-HD [2])
B1	binds	
B2	binds	
B3	binds	
B4		binds
B5		binds
